Source: doi:10.1101/2025.02.26.640373

Molecular target: SHP2^WT-TurboID (UniProt Q06124)

PD-1 pY248 phosphopeptide gave an in vitro phosphatase activity (initial velocity, RFU/s, DiFMUP substrate): +PD-1 pY248 over basal activity of 10 fold.
